From IntAct's records for PubMed 25910212

B1: Dolichol-phosphate mannosyltransferase subunit 1 (Homo sapiens), O60762 (parent)
chain: MASLEVSRSPRRSRRELEVRSPRQNKYSVLLPTYNERENLPLIVWLLVKSFSESGINYEIIIIDDGSPDGTRDVAEQLEKIYGSDRILLRPREKKLGLGTAYIHGMKHATGNYIIIMDADLSHHPKFIPEFIRKQKEGNFDIVSGTRYKGNGGVYGWDLKRKIISRGANFLTQILLRPGASDLTGSFRLYRKEVLEKLIEKCVSKGYVFQMEMIVRARQLNYTIGEVPISFVDRVYGESKLGGNEIVSFLKGLLTLFATT
B2: Ubiquitin-protein ligase (Homo sapiens), Q05086 (parent)
chain: MEKLHQCYWKSGEPQSDDIEASRMKRAAAKHLIERYYHQLTEGCGNEACTNEFCASCPTFLRMDNNAAAIKALELYKINAKLCDPHPSKKGASSAYLENSKGAPNNSCSEIKMNKKGARIDFKDVTYLTEEKVYEILELCREREDYSPLIRVIGRVFSSAEALVQSFRKVKQHTKEELKSLQAKDEDKDEDEKEKAACSAAAMEEDSEASSSRIGDSSQGDNNLQKLGPDDVSVDIDAIRRVYTRLLSNEKIETAFLNALVYLSPNVECDLTYHNVYSRDPNYLNLFIIVMENRNLHSPEYLEMALPLFCKAMSKLPLAAQGKLIRLWSKYNADQIRRMMETFQQLITYKVISNEFNSRNLVNDDDAIVAASKCLKMVYYANVVGGEVDTNHNEEDDEEPIPESSELTLQELLGEERRNKKGPRVDPLETELGVKTLDCRKPLIPFEEFINEPLNEVLEMDKDYTFFKVETENKFSFMTCPFILNAVTKNLGLYYDNRIRMYSERRITVLYSLVQGQQLNPYLRLKVRRDHIIDDALVRLEMIAMENPADLKKQLYVEFEGEQGVDEGGVSKEFFQLVVEEIFNPDIGMFTYDESTKLFWFNPSSFETEGQFTLIGIVLGLAIYNNCILDVHFPMVVYRKLMGKKGTFRDLGDSHPVLYQSLKDLLEYEGNVEDDMMITFQISQTDLFGNPMMYDLKENGDKIPITNENRKEFVNLYSDYILNKSVEKQFKAFRRGFHMVTNESPLKYLFRPEEIELLICGSRNLDFQALEETTEYDGGYTRDSVLIREFWEIVHSFTDEQKRLFLQFTTGTDRAPVGGLGKLKMIIAKNGPDTERLPTSHTCFNVLLLPEYSSKEKLKERLLKAITYAKGFGML
partner: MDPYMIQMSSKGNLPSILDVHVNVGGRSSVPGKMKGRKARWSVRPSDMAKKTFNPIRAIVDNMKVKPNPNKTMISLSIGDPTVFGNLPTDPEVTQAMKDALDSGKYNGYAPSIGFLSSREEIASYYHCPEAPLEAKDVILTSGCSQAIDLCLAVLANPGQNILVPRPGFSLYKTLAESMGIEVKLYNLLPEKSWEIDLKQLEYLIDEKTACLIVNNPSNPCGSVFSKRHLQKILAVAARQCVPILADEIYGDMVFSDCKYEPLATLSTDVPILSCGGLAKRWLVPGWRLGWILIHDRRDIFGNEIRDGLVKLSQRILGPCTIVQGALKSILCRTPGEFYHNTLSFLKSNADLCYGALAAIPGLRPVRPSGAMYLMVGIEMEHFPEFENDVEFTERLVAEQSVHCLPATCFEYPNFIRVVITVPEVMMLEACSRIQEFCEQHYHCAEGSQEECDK
B3: Progranulin (Homo sapiens), P28799 (parent)
chain: MWTLVSWVALTAGLVAGTRCPDGQFCPVACCLDPGGASYSCCRPLLDKWPTTLSRHLGGPCQVDAHCSAGHSCIFTVSGTSSCCPFPEAVACGDGHHCCPRGFHCSADGRSCFQRSGNNSVGAIQCPDSQFECPDFSTCCVMVDGSWGCCPMPQASCCEDRVHCCPHGAFCDLVHTRCITPTGTHPLAKKLPAQRTNRAVALSSSVMCPDARSRCPDGSTCCELPSGKYGCCPMPNATCCSDHLHCCPQDTVCDLIQSKCLSKENATTDLLTKLPAHTVGDVKCDMEVSCPDGYTCCRLQSGAWGCCPFTQAVCCEDHIHCCPAGFTCDTQKGTCEQGPHQVPWMEKAPAHLSLPDPQALKRDVPCDNVSSCPSSDTCCQLTSGEWGCCPIPEAVCCSDHQHCCPQGYTCVAEGQCQRGSEIVAGLEKMPARRASLSHPRDIGCDQHTSCPVGQTCCPSLGGSWACCQLPHAVCCEDRQHCCPAGYTCNVKARSCEKEVVSAQPATFLARSPHVGVKDVECGEGHFCHDNQTCCRDNRQGWACCPYRQGVCCADRRHCCPAGFRCAARGTKCLRREAPRWDAPLRDPALRQLL
partner: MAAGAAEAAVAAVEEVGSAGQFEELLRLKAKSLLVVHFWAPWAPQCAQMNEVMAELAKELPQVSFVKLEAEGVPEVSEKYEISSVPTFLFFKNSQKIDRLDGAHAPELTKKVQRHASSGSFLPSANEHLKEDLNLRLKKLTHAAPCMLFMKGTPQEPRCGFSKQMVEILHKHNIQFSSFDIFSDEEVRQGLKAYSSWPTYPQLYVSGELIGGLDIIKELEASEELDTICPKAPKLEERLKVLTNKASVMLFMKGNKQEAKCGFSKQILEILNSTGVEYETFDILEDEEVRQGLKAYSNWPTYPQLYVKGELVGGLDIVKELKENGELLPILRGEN

Variants of: B1
Conditions: with t23o_human TDO2, P48775
t23o_human TDO2, P48775, sequence (P48775 whole entry, looked up): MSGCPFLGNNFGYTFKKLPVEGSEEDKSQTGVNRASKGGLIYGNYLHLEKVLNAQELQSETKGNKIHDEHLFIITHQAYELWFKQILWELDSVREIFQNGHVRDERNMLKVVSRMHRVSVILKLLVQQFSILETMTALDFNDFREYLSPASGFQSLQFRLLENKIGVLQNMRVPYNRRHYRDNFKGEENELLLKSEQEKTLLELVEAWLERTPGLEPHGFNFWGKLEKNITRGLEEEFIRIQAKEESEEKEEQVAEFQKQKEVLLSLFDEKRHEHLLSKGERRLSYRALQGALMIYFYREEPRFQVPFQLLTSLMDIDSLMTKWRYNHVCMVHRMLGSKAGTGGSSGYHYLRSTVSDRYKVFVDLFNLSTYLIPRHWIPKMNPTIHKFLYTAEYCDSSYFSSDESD

| Variant | effect of a mutation on the interaction |
| --- | --- |
| S248P | with no effect |
| R92G | with no effect |

Variants of: B2
Conditions: with atty_human TAT

| Variant | effect of a mutation on the interaction |
| --- | --- |
| R529C | disrupting interaction strength |
| I827K | disrupting interaction strength |
| S372P | disrupting interaction strength |

Variants of: B3
Conditions: with glrx3_human GLRX3, O76003

| Variant | effect of a mutation on the interaction |
| --- | --- |
| MWTLVSWVALTAGLVAGTRCPDGQFCPVACCLDPGGASYSCCRPLLDKWPTTLSRHLGGPCQVDAHCSAGHSCIFTVSGTSSCCPFPEAVACGDGHHCCPRGFHCSADGRSCFQRSGNNSVGAIQCPDSQFECPDFSTCCVMVDGSWGCCPMPQASCCEDRVHCCPHGAFCDLVHTRCITPTGTHPLAKKLPAQRTNRAVALSSSVMCPDARSRCPDGSTCCELPSGKYGCCPMPNATCCSDHLHCCPQDTVCDLIQSKCLSKENATTDLLTKLPAHTVGDVKCDMEVSCPDGYTCCRLQSGAWGCCPFTQAVCCEDHIHCCPAGFTCDTQKGTCEQGPHQVPWMEKAPAHLSLPDPQALKRDVPCDNVSSCPSSDTCCQLTSGEWGCCPIPEAVCCSDHQHCCPQGYTCVAEGQCQRGSEIVAGLEKMPARRASLSHPRDIGCDQHTSCLVGQTCCPSLGGSWACCQLPHAVCCEDRQHCCPAGYTCNVKARSCEKEVVSAQPATFLARSPHVGVKDVECGEGHFCHDNQTCCRDNRQGWACCPYRQGVCCADRRHCCPAGFRCAARGTKCLRREAPRWDAPLRDPALRQLL [P451L] | disrupting interaction strength |
